# Patent US20160159927A1
# Columns and labels:
# [1] = target: PD1 (over-expressed on cells); test: cell-cell conjugation: dye-labelled A20-PD-L1 and A20-PD1 cells mixed, double-positive events read by flow cytometry (positive control)
# [2] = target: VSIG8 (over-expressed on cells; species not stated) (Homo sapiens (Human)) (UniProt P0DPA2); test: cell-cell conjugation: two differently dye-labelled lots of A20-VSIG8 cells mixed, double-positive events read by flow cytometry (negative control)
# [3] = target: VSIG8 (over-expressed on cells; species not stated) (Homo sapiens (Human)) (UniProt P0DPA2); test: cell-cell conjugation: dye-labelled A20-VISTA and A20-VSIG8 cells mixed, double-positive events read by flow cytometry
substance,measurement,setting,value
PD-L1 (over-expressed on A20 cells) (ligand),"Q2 (percent double-positive, conjugated cells)",[1],28
VSIG8 (over-expressed on cells; species not stated) (from UniProt P0DPA2 22-414) (receptor),"Q2 (percent double-positive, conjugated cells)",[2],3.92
VISTA (over-expressed on A20 cells; species not stated) (from UniProt Q9H7M9 33-311) (ligand),"Q2 (percent double-positive, conjugated cells)",[3],11.4
